“And” between values parts separate entries of the source, which are not always exact repeats. Equal entries are not always repeated.
Experiments:
[1] = biological target: the molecule itself; assay: AUC; sedimentation velocity of His6-TssA1 at 0.8, 0.56 and 0.32 mg/ml, 20,000 and 30,000 rpm, 20 °C, 25 mM Tris-HCl pH 7.5, 200 mM NaCl; c(s) by SEDFIT
[2] = biological target: T1, TssA1 fused to the adenylate cyclase T25 or T18 subunit (P. aeruginosa, UniProt Q9I750 1-344); assay: two-hybrid; bacterial two-hybrid (BTH), T25 and T18 adenylate cyclase fusions in E. coli DHM1; β-galactosidase activity in Miller units and X-gal LB agar plates; conditions: partners not purified
T1 sequence: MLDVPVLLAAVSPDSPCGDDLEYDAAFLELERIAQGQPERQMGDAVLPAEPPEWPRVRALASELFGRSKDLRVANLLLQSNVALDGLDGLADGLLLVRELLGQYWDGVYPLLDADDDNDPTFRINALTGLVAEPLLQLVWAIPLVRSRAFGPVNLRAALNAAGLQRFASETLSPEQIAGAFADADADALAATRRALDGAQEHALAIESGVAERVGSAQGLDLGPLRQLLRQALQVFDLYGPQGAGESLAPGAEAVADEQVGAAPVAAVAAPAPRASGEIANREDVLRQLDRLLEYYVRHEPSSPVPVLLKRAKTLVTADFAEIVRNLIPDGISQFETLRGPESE

Binder | stoichiometry N [1] | fold above control (β‐galactosidase activity) [2] [fold]
His6-TssA1 (natural protein) MLDVPVLLAAVSPDSPCGDDLEYDAAFLELERIAQGQPERQMGDAVLPAEPPEWPRVRALASELFGRSKDLRVANLLLQSNVALDGLDGLADGLLLVRELLGQYWDGVYPLLDADDDNDPTFRINALTGLVAEPLLQLVWAIPLVRSRAFGPVNLRAALNAAGLQRFASETLSPEQIAGAFADADADALAATRRALDGAQEHALAIESGVAERVGSAQGLDLGPLRQLLRQALQVFDLYGPQGAGESLAPGAEAVADEQVGAAPVAAVAAPAPRASGEIANREDVLRQLDRLLEYYVRHEPSSPVPVLLKRAKTLVTADFAEIVRNLIPDGISQFETLRGPESE | 12 and 24 | –
TssK1 fused to the adenylate cyclase T25 or T18 subunit (natural protein) MSWNNRVVWSEGMFLRPQHFQQHDRYLETLVDGRCRSLLAGGWGFSELKLDDALLTQGKLAIVSARGVLPDGTPFNIPADDPAPAPLNVEESLRDGIVYLGLPLKRVGTRDTVEEGEALGGARYVSQVQEVRDDNAAFESRAPVALGSQAFRLLTERDGLGEYAAVGVARVREKRADQALSLDEDYLPPVLDIAAAPPLASFAKELLGLLHQRGEALAGRVVASSAGGASEIADFLLLQLVNRAEALTGHLSRVRPLHPQELYRELVALAGEFCTFTASQRRPEEYPVYNHDDLAASFAPVMLALRQALATVIDAKAIAIPIVEKAYGVHVAMLSDRSLIDNASFVLVVRADVPGESLRGHFPQQAKVGSVEHIRDLVNLQLPGIGLLPMPVAPRQIPYHAGSTYFELDRGSAHWKQLTHSGGFAFHIAGQFPGLNLAFWAIRG | – | ~20

From PMC4969574 (The EMBO Journal, 2016)
